Data: publication PMC11980386
Several values for one entry are separate records, joined by “and”; a condition that tells them apart may be missing. Equal values may be shown once.

Columns and labels:
[1] = biological target: CD0828 of Clostridioides difficile (annotated as a glutamate synthase, with an N-terminal rubredoxin-like domain) (Clostridioides difficile); experiment: SEC; Superdex S200 10/300 GL, 20 mM Tris-HCl pH 7.5, 18% glycerol, 150 mM NaCl; mass read against a second set of standards (ovalbumin, conalbumin, aldolase, ferritin, thyroglobulin)
[2] = biological target: Rubrerythrin Rbr (CD0825) of Clostridioides difficile (Clostridioides difficile); experiment: SEC; Superdex S200 10/300 GL, 20 mM Tris-HCl pH 7.5, 18% glycerol, 150 mM NaCl; mass read against protein standards
[3] = biological target: Superoxide reductase Sor (CD0827, desulfoferrodoxin) of Clostridioides difficile (Clostridioides difficile); experiment: SEC; Superdex S200 10/300 GL, 20 mM Tris-HCl pH 7.5, 150 mM NaCl, no glycerol; mass read against protein standards

Substance: CD0828 of Clostridioides difficile (annotated as a glutamate synthase, with an N-terminal rubredoxin-like domain) (natural protein)
- stoichiometry N [1]: 2

Substance: Rubrerythrin Rbr (CD0825) of Clostridioides difficile (enzyme)
- stoichiometry N [2]: 4

Substance: Superoxide reductase Sor (CD0827, desulfoferrodoxin) of Clostridioides difficile (enzyme)
- stoichiometry N [3]: 2 and 4
